Assay results published in US12319931B2, “Oncolytic virus expressing interferon and application therefor” (SHANGHAI YUANSONG BIOTECHNOLOGY CO. LTD., priority 2018, dated 2025).

System: HCC1806 xenograft tumor
Experiment: HCC1806 xenograft tumor model in nude mice
Format: in vivo
Details: virus intratumoral 1.5×10^10 VP/time/mouse, rIFN intraperitoneal 20 μg/time/mouse, 5 times
Description: When the experimental nude mice reached 5 weeks old, they were injected with 2×10^6 HCC1806 tumor cells for tumor formation. […] The tumor size was observed and measured every 3 days after administration of oncolytic virus.
Specifically, the triple negative breast cancer cell line HCC1806 xenograft tumor of nude mice with less immune cell infiltration were used for in vivo drug efficacy testing. […] The tumor size was measured every three days.

B1: recombinant interferon protein: consensus interferon rIFN protein; synthetic interferon with roughly the average sequence of human interferon-α subtypes (protein)
chain 1: MALSFSLLMAVLVLSYKSICSLGMCDLPQTHSLGNRRALILLAQMRRISPFSCLKDRHDFGFPQEEFDGNQFQKAQAISVLHEMIQQTFNLFSTKDSSAAWDESLLEKFYTELYQQLNDLEACVIQEVGVEETPLMNVDSILAVKKYFQRITLYLTEKKYSPCAWEVVRAEIMRSFSLSTNLQERLRRKE
chain 2: MALSFSLLMAVLVLSYKSICSLGMCDLPQTHSLGNRRALILLAQMRRISPFSCLKDRHDFGFPQEEFDGNQFQKAQAISVLHEMIQQTFNLFSTKDSSAAWDESLLEKFYTELYQQLNDLEACVIQEVGVEETPLMNVDSILAVKKYFQRITLYLTEKKYSPCAWEVVRAEIMRSFSLSTNLQERLRRKE
chain 3: MALSFSLLMAVLVLSYKSICSLGMCDLPQTHSLGNRRALILLAQMRRISPFSCLKDRHDFGFPQEEFDGNQFQKAQAISVLHEMIQQTFNLFSTKDSSAAWDESLLEKFYTELYQQLNDLEACVIQEVGVEETPLMNVDSILAVKKYFQRITLYLTEKKYSPCAWEVVRAEIMRSFSLSTNLQERLRRKE
modifications: consensus interferon coding sequence IFN-1; consensus interferon coding sequence IFN-2; consensus interferon coding sequence IFN-3
tumor-suppressive effect: no obvious tumor-suppressive effect
